Our source for the Kd values is article PMC7040040.

The target of the test is T1, pE3-Aβ(3–18) monomer.
T1 chain: EFRHDSGYEVHHQKLV
In words: SPR (Biacore). Conditions: chain shown with the change.

B1: humanized PBD-C06 (CDR-grafted IgG1:kappa version) VL:F41L (protein)
chain 1: QVQLVQSGAEVKKSGASVKVSCKASGYSFTGYTMNWVRQAPGQGLEWMGLINPYNGVTRYNQKFKGRVTLIRDTSTTTVYMELTSLTSEDTAVYYCAREAKREWDETYWGQGTLVTVSS
chain 2: DVVMTQSPLSLPVTLGQPASISCKSSQSLLYSDGKTYLNWLQQRPGQSPRRLIYLVSKLDSGVPDRFSGSGSGTDFTLKISRVEAEDVGVYYCVQGTHFPFTFGGGTKVEIK
One may read the Kd as the constant that tells how readily two partners part at equilibrium. In the case of B1, the dissociation constant Kd amounted to 162 nM.
